Experimental findings from US20100136580A1 (Genentech, published 2010) are described below.

One may read the IC50 as the point on the concentration scale where inhibition reaches its midpoint. The Ki is the equilibrium dissociation constant of an inhibitor or competing ligand from its target. For orientation: Kd means the equilibrium constant for the complex coming apart. Lower therefore signals higher affinity.

No end group written: not given here.

T1: GST-Dvl2PDZ fusion protein (human, UniProt O14641 248-364)
T1 construct: range 248-364; Made with the pGEX E. coli expression system; also called GST-PDZ fusion protein; not shown: glutathione S-transferase (GST) encoded by plasmid pGEX
T1 sequence (looked up): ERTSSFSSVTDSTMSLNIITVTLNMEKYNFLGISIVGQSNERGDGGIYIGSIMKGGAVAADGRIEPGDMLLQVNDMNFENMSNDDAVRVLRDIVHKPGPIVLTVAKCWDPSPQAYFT

T2: purified Dvl2PDZ domain polypeptide (human, UniProt O14641 248-364)
T2 construct: range 248-364; As used in the fluorescence polarization assay; also called DvlPDZ domain
T2 sequence (looked up): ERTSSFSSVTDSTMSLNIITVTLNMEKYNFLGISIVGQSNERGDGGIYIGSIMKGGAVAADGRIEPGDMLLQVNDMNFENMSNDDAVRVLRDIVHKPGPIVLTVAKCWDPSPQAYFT

B1: Peptide D2 (KWYGWF) (peptide)
peptide: Ac-KWYGWF
notes: synthetic peptide; D1 with Leu to Phe at position 0
B2: Peptide D3 (WKWYGWL) (peptide)
peptide: Ac-WKWYGWL
notes: synthetic peptide; D1 with a Trp extension at position -6
B3: Peptide D4 (WKWYGWF) (peptide)
peptide: Ac-WKWYGWF
notes: synthetic peptide; D2 with a Trp extension at position -6

The target of the first experiment is T1, GST-Dvl2PDZ fusion protein. Kind of experiment: competition ELISA; GST-Dvl2PDZ (600 nM) binding to immobilized biotin-KWYGWL. Here is the method:
Affinity assays-The binding affinities of peptides for Dvl2PDZ were determined as IC₅₀ values using a competition ELISA, as previously described. The IC₅₀ value was defined as the concentration of peptide that blocked 50% of PDZ domain binding to immobilized peptide. Assay plates were prepared by immobilizing an amino-terminally biotinylated peptide (KWYGWL_-COOH) (SEQ ID NO: 169) on Maxisorp immunoplates coated with neutravidin and blocked with BSA. A fixed concentration of GST-PDZ fusion protein (600 nM) in PBS, 0.5% BSA, 0.1% Tween 20 (PBT buffer) was preincubated for 1 h with serial dilutions of peptide and then transferred to the assay plates. After 15 min incubation, the plates were washed with PBS, 0.05% Tween 20, incubated with a mixture of anti-GST antibody (0.5 μg/m1) and horseradish peroxidase/rabbit anti-mouse IgG antibody conjugate (1:2000 dilution) in PBT buffer, washed again, and detected with TMB peroxidase substrate.
For orientation: ELISA stands for enzyme-linked immunosorbent assay.
Consider Ac-KWYGWL-OH (synthetic peptide) [Peptide D1 (KWYGWL-COOH)], for which the IC50 came out at 1340 nM. On the same count and under the same terms, then B1, with 930 nM; and Ac-KGFGML-OH (synthetic peptide), with 243000 nM.

For B2, the concentration for half-maximal inhibition (IC50) came out at 140 nM. With B3, the half-inhibitory concentration (IC50) came out at 310 nM.

Another experiment has as its target T2, purified Dvl2PDZ domain polypeptide. Kind of experiment: fluorescence polarization competition; 10 nM FAM-KWYGWL probe, 1 µM Dvl2PDZ. The protocol: (§1) The binding affinities of synthetic peptides were also measured by Flourescence polarization assay. Serial dilution of purified Dvl2PDZ domain polypeptide (1-10 μM) was incubated with 10 nM probe peptide (FAM-KWYGWL-COOH) (SEQ ID NO: 169) in PBS, 0.1% Triton X100 as 30 μl volume in 96-well black HE96 plates (LJL Biosystem, Inc, Calif.), and incubated for 15 minutes at room temperature. Polarization measurements were performed in Analyst platereader (LJL Biosystems, Inc., Sunnyvale, Calif.). […] Competition experiments were performed by addition of serial dilution of the free peptides (0-500 μM) to solution with 10 nM probe and 1 μM Dvl2PDZ. The polarization was measured and IC50 values were derived as described above. Kᵢ values were calculated as described previously.
In general terms: Fluorescence polarisation rises when a labelled molecule tumbles more slowly, as on binding a larger partner.
Molecule Ac-KWYGWL-OH (synthetic peptide) [Peptide D1 (KWYGWL-COOH)] came in with a Ki of 725 nM. This lies in the sub-micromolar range.

Turning to Ac-GEIVLWSDIPG-NH2 (synthetic internal peptide ligand) [Peptide N3 (GEIVLWSDIPG)], the Ki was 4620 nM. Regarding Ac-GWKDYGWIDG-NH2 (synthetic internal peptide ligand) [Peptide N2 (GWKDYGWIDG)], the Ki was determined as 1210 nM. Compared with the last molecule, the Ki is about 3.8-fold lower.

In a further experiment the target is T1, GST-Dvl2PDZ fusion protein. Kind of experiment: phage display selection on GST-Dvl2PDZ. The protocol: The libraries were cycled through rounds of binding selection with a GST-Dvl2PDZ fusion protein coated on 96-well Maxisorp immunoplates as the capture target. Phage were propagated in E. coli XL1-blue with M13-KO7 helper phage and 10 μM IPTG. After four rounds of binding selection, individual phage clones were analyzed in a high-throughput phage ELISA, and positive clones were subjected to DNA sequence analysis.
We used decapeptide libraries fused to the C-terminus or N-terminus of the phage coat protein. The library contained NNK degenerate codons that encoded all 20 natural amino acids. The possible occurrence of amber stop codons in the degenerate codon also provided for the display of shorter peptides for the C-terminal library. Each library was cycled through four rounds of binding selection with immobilized GST-Dvl2PDZ fusion protein as the capture target.
For the molecule EKIVKDYGWIGGG [SEQ ID NO 51], the binding result is given as “binds”. Same read-out and setting: then PYTWINYGWVGGG [SEQ ID NO 67], with “binds”. The same measure, in the same setting: then SEWKNYGYIGGG [SEQ ID NO 48], with “binds”; and QWVMTECGWIGGG [SEQ ID NO 52], with “binds”; and AWIVDYGWIDGGG [SEQ ID NO 76], with “binds”. On the same count and under the same terms, then WTIRDYGWLDGGG [SEQ ID NO 79], with “binds”. As to LWRVTDYGWVGGG [SEQ ID NO 58], the binding result is “binds”.

ETSWKQYGWIGGG [SEQ ID NO 66]: the binding result is on record as “binds”. Still for that read-out and setting: then DSLKYYGWIGGG [SEQ ID NO 68], with “binds”; and DMDFTGFGWLGGG [SEQ ID NO 55], with “binds”. Still for that read-out and setting: the entry for ELRWHDYGWIGGG [SEQ ID NO 56] is “binds”.

Regarding LWRVTDYGWVGGG [SEQ ID NO 64], the binding result was “binds”. Still for that read-out and setting: the entry for VWHYYGWLDGGG [SEQ ID NO 80] is “binds”. Take TRFTNYGWLDGGG [SEQ ID NO 75]: the binding result is “binds”. On the same count and under the same terms, the entry for LVQLTDYGWIGGG [SEQ ID NO 60] is “binds”. Still for that read-out and setting: then SEWKNYGYIGGG [SEQ ID NO 62], with “binds”; and EWILTDYGVVGGG [SEQ ID NO 63], with “binds”; and TVVWHDYGWIGGG [SEQ ID NO 50], with “binds”.

For TVVWHDYGWIGGG [SEQ ID NO 59], the binding result was “binds”. Still for that read-out and setting: then ASLKYYGWLDGGG [SEQ ID NO 74], with “binds”; and SAYKCYGWIDGGG [SEQ ID NO 70], with “binds”; and TEYGWMDYHP [SEQ ID NO 77], with “binds”. The same measure, in the same setting: the entry for WVLVDYGVIGGG [SEQ ID NO 46] is “binds”. Regarding TDYGWIDYPP [SEQ ID NO 72], the binding result is given as “binds”. On the same count and under the same terms, the entry for EMVVTNYGWIGGG [SEQ ID NO 54] is “binds”; for TVVWHDYGWIGGG [SEQ ID NO 65] it is “binds”; for DTAYKDYGWIGGG [SEQ ID NO 61] it is “binds”. For LVVKDYGWIGGG [SEQ ID NO 47], the binding result was “binds”. The same measure, in the same setting: then SIIYYGWLDGGG [SEQ ID NO 71], with “binds”; and GTQWKDYGWLGGG [SEQ ID NO 53], with “binds”; and QYRFIDYGWIGGG [SEQ ID NO 69], with “binds”.

Consider LVPIFYGWIDGGG [SEQ ID NO 73], for which the binding result is reported as “binds”. On the same count and under the same terms, the entry for GWTWKDYGMIGGG [SEQ ID NO 49] is “binds”; for LILVNYGWIDGGG [SEQ ID NO 78] it is “binds”. On the same count and under the same terms, then ELRWHDYGWIGGG [SEQ ID NO 57], with “binds”.

Another experiment addresses T2, purified Dvl2PDZ domain polypeptide. Nature of the experiment: fluorescence polarization, direct titration of Dvl2PDZ against 10 nM probe. The protocol: as §1
For {FAM}-KWYGWL-OH (fluorescence polarization probe, 10 nM) [probe peptide (FAM-KWYGWL-COOH)], the affinity, expressed as Kd, was 536 nM.

The target of another experiment is DvlPDZ domain (endogenous Dvl in the treated cells). Nature of the experiment: cell-based or functional assay.
For the molecule Ac-RQIKIWFQNRRMKWKKKWYGWL [Ac-… (DVLp_C)], the inhibition of Wnt3a-stimulated transcriptional activity (TopGlow assay, HEK293 cells) is 50%.

The next experiment concerns the target T2, purified Dvl2PDZ domain polypeptide. Nature of the experiment: fluorescence polarization competition. The protocol: as §1
Flourescence polarization assay was used to measure the affinity of two internal peptide ligands N2 and N3 to DvlPDZ domain.
Regarding Ac-GEIVLWSDIPG-NH2 (synthetic internal peptide ligand) [Peptide N3 (GEIVLWSDIPG)], the “fold lower affinity than D1” value was 6 fold.
